The values below are quoted from earlier work in PMC9106955.

This data set deals with GLP-1R N-terminal domain (UniProt P43220).
UniProt P43220, sequence (P43220 24-145): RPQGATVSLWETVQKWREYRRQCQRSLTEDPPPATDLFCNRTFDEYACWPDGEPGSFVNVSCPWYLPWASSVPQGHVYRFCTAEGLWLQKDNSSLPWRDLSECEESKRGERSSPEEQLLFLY

As for Exendin-4 (from UniProt P26349), the Kd was 6 nM.
